# Reference: US20230293644A1, “ANTI-INFLAMMATORY PEPTIDES AND COMPOSITION COMPRISING THE SAME” (Gemvax & KAEL Co., Ltd., priority 2012, published 2023)
# How the values were obtained:
# Format in all cases: cell-based, rat
# neural stem cells = experiment: Amyloid-β toxicity assessment on neural stem cells; conditions: 20 µM amyloid-β protein, 48 hours
# Experimental: After removing the cortex from the head of an embryonic rat that had been pregnant for 13 days, it was cultured for a week with Basic Fibroblast Growth Factor (bFGF) to obtain the neural stem cells. To analyze the effects of the amyloid-β protein on the neural stem cells, the pre-oligomerized amyloid-β protein of concentrations 0 to 40 µM was treated on neural stem cells for 48 hours, then CCK-8 assay, BrdU, and TUNEL assay were used for cytotoxicity assessment (refer from BA Yankner et al, 1990 and KN Dahlgren et al, 2002).
# HSP 90 = experiment: 2D-electrophoresis protein expression in neural stem cells: HSP 90; conditions: β-amyloid alone; negative control 1.0
# Experimental: (§1) Protein expression level of PEP-1 treated group and untreated group was analyzed by 2D-electrophoresis technique and antibody microarray technique. Prepared 200ug by extracting proteome from the neural stem cells cultured in Experiment 1-1 of example 3. In addition, the group in which PEP-1 was not treated was used as the comparison group in the same condition.
# (§2) 2D-electrophoresis was performed using 12% acrylamide gels. First gel electrophoresis was performed at Pl 4~10N, using a gel size of 8.5×7cm. After electrophoresis, it was dyed with Colloidal Coomassie Blue, and then compared expression by using PDQuest software to analyze each spot.
# (§3) Difference in the expression levels of more than 1.5 times was identified using MALDI-TOF MS (Matrix Desoprtion/lionization Time of Flight Mass Spectromestry). Among these, proteins correlated with inflammation-related signaling, such as i-NOS and HMGB-1 were identified (Refer to Table 6). The changes in protein expression levels either increased or decreased by 1.5 times by amyloid-β protein, but it was confirmed that expression level was regulated close to that of negative control when PEP-1 was added (Refer to FIG. 57).
# (§4) The Table 6 below is an analysis of expression levels of proteins associated with inflammation by 2D electrophoresis technique. […]
# Pyk2 = experiment: 2D-electrophoresis protein expression in neural stem cells: Pyk2; conditions: β-amyloid alone; negative control 1.0
# Experimental: as §1, §2, §3, §4
# MAP Kinase = experiment: 2D-electrophoresis protein expression in neural stem cells: MAP Kinase; conditions: β-amyloid alone; negative control 1.0
# Experimental: as §1, §2, §3, §4
# e-N0S = experiment: 2D-electrophoresis protein expression in neural stem cells: e-N0S; conditions: β-amyloid alone; negative control 1.0
# Experimental: as §1, §2, §3, §4
# HHGB1 = experiment: 2D-electrophoresis protein expression in neural stem cells: HHGB1; conditions: β-amyloid alone; negative control 1.0
# Experimental: as §1, §2, §3, §4
# GAUD 153 = experiment: 2D-electrophoresis protein expression in neural stem cells: GAUD 153; conditions: β-amyloid alone; negative control 1.0
# Experimental: as §1, §2, §3, §4
# HSP 70 = experiment: 2D-electrophoresis protein expression in neural stem cells: HSP 70; conditions: β-amyloid alone; negative control 1.0
# Experimental: as §1, §2, §3, §4
# i-N0S = experiment: 2D-electrophoresis protein expression in neural stem cells: i-N0S; conditions: β-amyloid alone; negative control 1.0
# Experimental: as §1, §2, §3, §4
substance,measurement,setting,value
amyloid-β protein,cell survival,neural stem cells,60%
same,"HSP 90 expression, 20ug β -amyloid treated group (fold)",HSP 90,-1.8 fold
same,"Pyk2 expression, 20ug β -amyloid treated group (fold)",Pyk2,2.0 fold
same,"MAP Kinase expression, 20ug β -amyloid treated group (fold)",MAP Kinase,2.2 fold
same,"e-N0S expression, 20ug β -amyloid treated group (fold)",e-N0S,1.9 fold
same,"HHGB1 expression, 20ug β -amyloid treated group (fold)",HHGB1,-1.5 fold
same,"GAUD 153 expression, 20ug β -amyloid treated group (fold)",GAUD 153,1.6 fold
same,"HSP 70 expression, 20ug β -amyloid treated group (fold)",HSP 70,-2.3 fold
same,"i-N0S expression, 20ug β -amyloid treated group (fold)",i-N0S,1.9 fold
